Reference: article PMC11182016, “Molecular basis of human poly(A) polymerase recruitment by mPSF” (RNA, 2024)

B1: minimal PAPOAC construct (His6-MBP-3C-PAPOA residues 720–745), wild type (peptide)
chain: DLSDIPALPANPIPVIKNSIKLRLNR
notes: human poly(A) polymerase alpha (PAPOA), C-terminal motif, residues 720-745; A 3C site follows MBP; no cleavage step is described in the purification; also called PAPOA C terminus; PAPOAC peptide; source: E. coli BL21 STAR (DE3) pRARE, purified (Amylose resin, Superdex 200)
B2: minimal FIP1 construct (His6-MBP-3C-FIP1 residues 80–113), wild type (peptide, UniProt Q6UN15 80-113, looked up)
chain: ETEDDSDSDSDDDEDDVHVTIGDIKTGAPQYGSY
notes: A 3C site follows MBP; no cleavage step is described in the purification; also called minimal FIP1 peptide; source: E. coli BL21 STAR (DE3) pRARE, purified (Amylose resin, Superdex 200)

Legend:
Conditions in all cases: both partners purified
[1] = molecular target: T1, CPSF160–WDR33 (CPSF160 coexpressed with TwinStrep3C-WDR33 residues 1–413-FLAG) (human, UniProt Q10570 1-1443; Q9C0J8 1-413); assay: pull-down; FLAG pull-down on α-FLAG M2 Protein G Dynabeads; FLAG-tagged WDR33 (CPSF160–WDR33) 1.5 µM as bait, PAPOAC 15 µM; 20 mM HEPES-NaOH pH 7.5, 150 mM NaCl, 0.01% NP-40 substitute, no MgCl2, 4°C; Coomassie-stained SDS-PAGE
T1 construct: human CPSF160 (mPSF subunit); human WDR33 (mPSF subunit), residues 1-413; A 3C site follows the TwinStrep tag; no cleavage step is described; also called FLAG-tagged WDR33; source: Sf9, baculovirus coexpression, purified (StrepTactin XT, MonoQ, Superdex 200); not shown: FLAG, C-terminal, kept

[2] = molecular target: T2, PAPOA structured core (His8-3C-PAPOA residues 1–513-FLAG), wild type (human, UniProt P51003 1-513); assay: pull-down; FLAG pull-down on α-FLAG M2 Protein G Dynabeads; FLAG-tagged PAPOA core 2.5 µM as bait, PAPOAC 100 µM (40× excess); 20 mM HEPES-NaOH pH 7.5, 50 mM NaCl, 5 mM MgCl2, 0.01% NP-40 substitute, 4°C; Coomassie-stained SDS-PAGE
T2 construct: A 3C site lies between His8 and PAPOA; no cleavage step is described in the purification; also called PAPOA core; PAPOA_(1–513); source: E. coli BL21 STAR (DE3) pRARE, purified (Talon, HiTrap Heparin, Superdex 200); not shown: FLAG, C-terminal, kept

[3] = molecular target: T2, PAPOA structured core (His8-3C-PAPOA …); assay: pull-down; FLAG pull-down on α-FLAG M2 Protein G Dynabeads; FLAG-tagged PAPOA core 2.5 µM as bait, FIP1 25 µM (10× excess); 20 mM HEPES-NaOH pH 7.5, 150 mM NaCl, 5 mM MgCl2, 0.01% NP-40 substitute, 4°C; Coomassie-stained SDS-PAGE

T2 sequence (P51003 1-513): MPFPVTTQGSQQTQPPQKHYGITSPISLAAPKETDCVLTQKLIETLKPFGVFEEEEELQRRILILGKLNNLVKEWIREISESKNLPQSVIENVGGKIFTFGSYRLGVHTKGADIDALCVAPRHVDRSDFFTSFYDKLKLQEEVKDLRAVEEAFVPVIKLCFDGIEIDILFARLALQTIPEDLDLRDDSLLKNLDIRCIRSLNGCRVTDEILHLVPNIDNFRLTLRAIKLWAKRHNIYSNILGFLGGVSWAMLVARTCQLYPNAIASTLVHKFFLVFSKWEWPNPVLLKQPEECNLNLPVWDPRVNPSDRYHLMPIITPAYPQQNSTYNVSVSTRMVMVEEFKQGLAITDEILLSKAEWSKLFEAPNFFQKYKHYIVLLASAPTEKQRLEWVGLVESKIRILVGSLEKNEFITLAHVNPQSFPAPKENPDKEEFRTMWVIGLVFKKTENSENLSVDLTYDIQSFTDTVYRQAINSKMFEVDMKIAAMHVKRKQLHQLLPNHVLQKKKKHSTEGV
T1 sequence (Q10570 whole entry, chain 1 of 2, the tested form may be a part): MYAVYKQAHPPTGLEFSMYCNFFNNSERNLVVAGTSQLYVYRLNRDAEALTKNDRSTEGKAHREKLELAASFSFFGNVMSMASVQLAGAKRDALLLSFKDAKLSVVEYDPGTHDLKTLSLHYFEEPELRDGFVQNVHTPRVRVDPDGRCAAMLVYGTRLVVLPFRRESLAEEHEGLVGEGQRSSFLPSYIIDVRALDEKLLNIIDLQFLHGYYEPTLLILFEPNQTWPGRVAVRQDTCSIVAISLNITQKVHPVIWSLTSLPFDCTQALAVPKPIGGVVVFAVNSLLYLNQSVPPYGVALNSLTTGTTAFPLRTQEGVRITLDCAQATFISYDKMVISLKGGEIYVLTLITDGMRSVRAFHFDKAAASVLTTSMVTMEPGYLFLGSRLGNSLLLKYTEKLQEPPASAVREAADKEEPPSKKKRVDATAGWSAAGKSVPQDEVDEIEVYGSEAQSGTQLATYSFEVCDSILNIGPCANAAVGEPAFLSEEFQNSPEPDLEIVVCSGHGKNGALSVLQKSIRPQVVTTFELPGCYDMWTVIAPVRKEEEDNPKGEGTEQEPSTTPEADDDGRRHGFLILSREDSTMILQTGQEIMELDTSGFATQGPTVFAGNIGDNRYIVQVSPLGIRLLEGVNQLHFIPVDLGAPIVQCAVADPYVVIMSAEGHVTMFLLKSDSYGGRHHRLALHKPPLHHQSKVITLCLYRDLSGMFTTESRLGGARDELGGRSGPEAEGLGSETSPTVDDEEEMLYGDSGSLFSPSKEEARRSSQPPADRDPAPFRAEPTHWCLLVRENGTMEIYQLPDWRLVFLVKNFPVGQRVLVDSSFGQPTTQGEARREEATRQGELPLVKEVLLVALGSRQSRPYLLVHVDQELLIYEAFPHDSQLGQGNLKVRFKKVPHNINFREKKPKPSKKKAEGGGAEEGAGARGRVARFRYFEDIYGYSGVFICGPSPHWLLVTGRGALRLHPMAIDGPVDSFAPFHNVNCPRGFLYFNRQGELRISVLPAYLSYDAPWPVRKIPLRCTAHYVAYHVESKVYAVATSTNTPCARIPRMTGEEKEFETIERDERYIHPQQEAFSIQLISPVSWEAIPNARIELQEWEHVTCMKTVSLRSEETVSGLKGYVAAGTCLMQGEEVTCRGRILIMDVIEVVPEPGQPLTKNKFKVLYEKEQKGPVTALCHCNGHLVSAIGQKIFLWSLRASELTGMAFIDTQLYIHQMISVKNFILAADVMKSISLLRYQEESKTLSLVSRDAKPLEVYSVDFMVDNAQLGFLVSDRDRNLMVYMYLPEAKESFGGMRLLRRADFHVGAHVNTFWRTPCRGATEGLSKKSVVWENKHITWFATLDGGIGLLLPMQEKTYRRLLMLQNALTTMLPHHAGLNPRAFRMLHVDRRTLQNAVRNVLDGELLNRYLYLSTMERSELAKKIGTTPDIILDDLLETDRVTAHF
T1 sequence (Q9C0J8 1-413, chain 2 of 2): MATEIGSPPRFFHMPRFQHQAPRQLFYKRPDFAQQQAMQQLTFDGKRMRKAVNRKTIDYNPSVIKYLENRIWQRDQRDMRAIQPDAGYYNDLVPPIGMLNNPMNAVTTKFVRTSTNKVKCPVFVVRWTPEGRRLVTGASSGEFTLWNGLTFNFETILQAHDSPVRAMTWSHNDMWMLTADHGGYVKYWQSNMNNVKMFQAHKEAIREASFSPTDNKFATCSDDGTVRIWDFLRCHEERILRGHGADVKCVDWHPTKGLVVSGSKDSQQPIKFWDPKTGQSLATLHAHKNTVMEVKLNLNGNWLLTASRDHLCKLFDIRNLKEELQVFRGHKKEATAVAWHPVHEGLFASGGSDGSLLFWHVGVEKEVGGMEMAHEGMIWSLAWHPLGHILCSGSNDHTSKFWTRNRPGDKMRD

Row | Binder | binding result [1] | binding result [2] | binding result [3]
1 | B1 | binds | binds | –
2 | B2 | – | – | binds
